B1: MMP-2 (part of MMP-2/9, Chemicon) (protein)
chain: YNFFPRKPKWDKNQITYRIIGYTPDLDPETVDDAFARAFQVWSDVTPLRFSRIHDGEADIMINFGRWEHGDGYPFDGKDGLLAHAFAPGTGVGGDSHFDDDELWTLGEGQVVRVKYGNADGEYCKFPFLFNGKEYNSCTDTGRSDGFLWCSTTYNFEKDGKYGFCPHEALFTMGGNAEGQPCKFPFRFQGTSYDSCTTEGRTDGYRWCGTTEDYDRDKKYGFCPETAMSTVGGNSEGAPCVFPFTFLGNKYESCTSAGRSDGKMWCATTANYDDDRKWGFCPDQGYSLFLVAAHEFGHAMGLEHSQDPGALMAPIYTYTKNFRLSQDDIKGIQELYGASPDIDLGTGPTPTLGPVTPEICKQDIVFDGIAQIRGEIFFFKDRFIWRTVTPRDKPMGPLLVATFWPELPEKIDAVYEAPQEEKAVFFAGNEYWIYSASTLERGYPKPLTSLGLPPDVQRVDAAFNWSKNKKTYIFAGDKFWRYNEVKKKMDPGFPKLIADAWNAIPDNLDAVVDLQGGGHSYFFKGAYYLKLENQSLKSVKFGSIKSDWLGC
B2: a disintegrin and metalloproteinase (ADAM)-10 (R&D Systems) (protein)
chain: TTSAEKNTCQLYIQTDHLFFKYYGTREAVIAQISSHVKAIDTIYQTTDFSGIRNISFMVKRIRINTTADEKDPTNPFRFPNIGVEKFLELNSEQNHDDYCLAYVFTDRDFDDGVLGLAWVGAPSGSSGGICEKSKLYSDGKKKSLNTGIITVQNYGSHVPPKVSHITFAHEVGHNFGSPHDSGTECTPGESKNLGQKENGNYIMYARATSGDKLNNNKFSLCSIRNISQVLEKKRNNCFVESGQPICGNGMVEQGEECDCGYSDQCKDECCFDANQPEGRKCKLKPGKQCSPSQGPCCTAQCAFKSKSEKCRDDSDCAREGICNGFTALCPASDPKPNFTDCNRHTQVCINGQCAGSICEKYGLEECTCASSDGKDDKELCHVCCMKKMDPSTCASTGSVQWSRHFSGRTITLQPGSPCNDFRGYCDVFMRCRLVDADGPLARLKKAIFSPELYENIAE

Target: T1, MT1-MMP specific fluorogenic substrate MCA-Pro-Leu-Ala-Cys(p-OmeBz)-Trp-Ala-Arg(Dpa)-NH2
T1 chain: PLACWAR

Row | Protein | fluorescence emission (cleavage of the quenched fluorogenic substrate)
1 | B1 | Incubation with MMP-2/9, MMP-8, or ADAM-10 and 17 alone failed to cause fluorescence emission from the MT1-MMP substrate.
2 | B2 | Incubation with MMP-2/9, MMP-8, or ADAM-10 and 17 alone failed to cause fluorescence emission from the MT1-MMP substrate.

Source: patent publication US20100016697
